B1: CPEB3 Ribozyme (parent)
chain: GGGGGCCACAGCAGAAGCGUUCACGUCGCGGCCCCUGUCAGAUUCUGGUGAAUCUGCGAAUUCUGCUGU

Variants of: B1
Assay: self-cleavage, relative activity (ratio to wild type); higher = more cleavage; co-transcriptional
GGGGGCCACAGCAGAACCGUUCACGUCGCGGCCCCUGUCAGAUUCUGGUGAAUCUGCGAAUUCCGCUGU [G17C U64C] gave a self-cleavage of 0.203.
Work on GGGGGCCACAGCAGAACCGUUCACGUCGCGGCCCCUGUCAGAUUCUGGUGAAUCUGCGAAUUCGGCUGU [G17C U64G] yielded a self-cleavage of 0.171.
Variant GGGGGCCACAGCAGAACCGUUCACGUCGCGGCCCCUGUCAGAUUCUGGUGAAUCUGCGAAUUCUGCCGU [G17C U67C] has a self-cleavage of 0.145.
Variant GGGGGCCACAGCAGAACCGUUCACGUCGCGGCCCCUGUCAGAUUCUGGUGAAUCUGCGAAUUCUGCGGU [G17C U67G] has a self-cleavage of 0.209.
In the case of GGGGGCCACAGCAGAACCGUUCACGUCGCGGCCCCUGUCAGAUUCUGGUGAAUCUGCGAAUUCUGCUGA [G17C U69A], the self-cleavage is reported as 0.246.
GGGGGCCACAGCAGAACCGUUCACGUCGCGGCCCCUGUCAGAUUCUGGUGAAUCUGCGAAUUCUGCUGG [G17C U69G] gave a self-cleavage of 0.303.
GGGGGCCACAGCAGAAUCGUUCCCGUCGCGGCCCCUGUCAGAUUCUGGUGAAUCUGCGAAUUCUGCUGU [G17U A23C] gave a self-cleavage of 0.462.
In the case of GGGGGCCACAGCAGAAUCGUUCGCGUCGCGGCCCCUGUCAGAUUCUGGUGAAUCUGCGAAUUCUGCUGU [G17U A23G], the self-cleavage is reported as 0.331.
With GGGGGCCACAGCAGAAUCGUUCACGUCGCGGCCCCUGUCUGAUUCUGGUGAAUCUGCGAAUUCUGCUGU [G17U A40U] the self-cleavage was 0.149.
Work on GGGGGCCACAGCAGAAUCGUUCACGUCGCGGCCCCUGUCAGCUUCUGGUGAAUCUGCGAAUUCUGCUGU [G17U A42C] yielded a self-cleavage of 0.299.
GGGGGCCACAGCAGAAUCGUUCACGUCGCGGCCCCUGUCAGUUUCUGGUGAAUCUGCGAAUUCUGCUGU [G17U A42U] gave a self-cleavage of 0.334.
In the case of GGGGGCCACAGCAGAAUCGUUCACGUCGCGGCCCCUGUCAGAUUCUGGUGCAUCUGCGAAUUCUGCUGU [G17U A51C], the self-cleavage is reported as 0.423.
For GGGGGCCACAGCAGAAUCGUUCACGUCGCGGCCCCUGUCAGAUUCUGGUGGAUCUGCGAAUUCUGCUGU [G17U A51G], the self-cleavage was 0.569.
With GGGGGCCACAGCAGAAUCGUUCACGUCGCGGCCCCUGUCAGAUUCUGGUGUAUCUGCGAAUUCUGCUGU [G17U A51U] the self-cleavage was 0.43.
In the case of GGGGGCCACAGCAGAAUCGUUCACGUCGCGGCCCCUGUCAGAUUCUGGUGACUCUGCGAAUUCUGCUGU [G17U A52C], the self-cleavage is reported as 0.5.
GGGGGCCACAGCAGAAUCGUUCACGUCGCGGCCCCUGUCAGAUUCUGGUGAGUCUGCGAAUUCUGCUGU [G17U A52G] showed a self-cleavage of 0.585.
For GGGGGCCACAGCAGAAUCGUUCACGUCGCGGCCCCUGUCAGAUUCUGGUGAAUCUGCGGAUUCUGCUGU [G17U A59G], the self-cleavage was 0.357.
For GGGGGCCACAGCAGAAUCGUUCACGUCGCGGCCCCUGUCAGAUUCUGGUGAAUCUGCGUAUUCUGCUGU [G17U A59U], the self-cleavage was 0.147.
For GGGGGCCACAGCAGAAUCGUUCACGUCGCGGCCCCUGUCAGAUUCUGGUGAAUCUGCGACUUCUGCUGU [G17U A60C], the self-cleavage was 0.185.
For GGGGGCCACAGCAGAAUCGUUCACGUCGCGGCCCCUGUCAGAUUCUGGUGAAUCUGCGAGUUCUGCUGU [G17U A60G], the self-cleavage was 0.248.
GGGGGCCACAGCAGAAUCGUUCACGUCGCGGCCCCUGUCAGAUUCUGGUGAAUCUGCGAUUUCUGCUGU [G17U A60U] showed a self-cleavage of 0.229.
Variant GGGGGCCACAGCAGAAUAGUUCACGUCGCGGCCCCUGUCAGAUUCUGGUGAAUCUGCGAAUUCUGCUGU [G17U C18A] has a self-cleavage of 0.137.
In the case of GGGGGCCACAGCAGAAUGGUUCACGUCGCGGCCCCUGUCAGAUUCUGGUGAAUCUGCGAAUUCUGCUGU [G17U C18G], the self-cleavage is reported as 0.138.
Work on GGGGGCCACAGCAGAAUUGUUCACGUCGCGGCCCCUGUCAGAUUCUGGUGAAUCUGCGAAUUCUGCUGU [G17U C18U] yielded a self-cleavage of 0.155.
GGGGGCCACAGCAGAAUCGUUAACGUCGCGGCCCCUGUCAGAUUCUGGUGAAUCUGCGAAUUCUGCUGU [G17U C22A] gave a self-cleavage of 0.132.
GGGGGCCACAGCAGAAUCGUUGACGUCGCGGCCCCUGUCAGAUUCUGGUGAAUCUGCGAAUUCUGCUGU [G17U C22G] gave a self-cleavage of 0.112.
For GGGGGCCACAGCAGAAUCGUUUACGUCGCGGCCCCUGUCAGAUUCUGGUGAAUCUGCGAAUUCUGCUGU [G17U C22U], the self-cleavage was 0.169.
Variant GGGGGCCACAGCAGAAUCGUUCAAGUCGCGGCCCCUGUCAGAUUCUGGUGAAUCUGCGAAUUCUGCUGU [G17U C24A] has a self-cleavage of 0.133.
Work on GGGGGCCACAGCAGAAUCGUUCAGGUCGCGGCCCCUGUCAGAUUCUGGUGAAUCUGCGAAUUCUGCUGU [G17U C24G] yielded a self-cleavage of 0.0814.
With GGGGGCCACAGCAGAAUCGUUCAUGUCGCGGCCCCUGUCAGAUUCUGGUGAAUCUGCGAAUUCUGCUGU [G17U C24U] the self-cleavage was 0.179.
GGGGGCCACAGCAGAAUCGUUCACGUAGCGGCCCCUGUCAGAUUCUGGUGAAUCUGCGAAUUCUGCUGU [G17U C27A] showed a self-cleavage of 0.132.
GGGGGCCACAGCAGAAUCGUUCACGUGGCGGCCCCUGUCAGAUUCUGGUGAAUCUGCGAAUUCUGCUGU [G17U C27G] gave a self-cleavage of 0.185.
Variant GGGGGCCACAGCAGAAUCGUUCACGUCGAGGCCCCUGUCAGAUUCUGGUGAAUCUGCGAAUUCUGCUGU [G17U C29A] has a self-cleavage of 0.921.
For GGGGGCCACAGCAGAAUCGUUCACGUCGGGGCCCCUGUCAGAUUCUGGUGAAUCUGCGAAUUCUGCUGU [G17U C29G], the self-cleavage was 0.885.
Variant GGGGGCCACAGCAGAAUCGUUCACGUCGUGGCCCCUGUCAGAUUCUGGUGAAUCUGCGAAUUCUGCUGU [G17U C29U] has a self-cleavage of 0.268.
Variant GGGGGCCACAGCAGAAUCGUUCACGUCGCGGACCCUGUCAGAUUCUGGUGAAUCUGCGAAUUCUGCUGU [G17U C32A] has a self-cleavage of 0.154.
With GGGGGCCACAGCAGAAUCGUUCACGUCGCGGCACCUGUCAGAUUCUGGUGAAUCUGCGAAUUCUGCUGU [G17U C33A] the self-cleavage was 0.228.
Work on GGGGGCCACAGCAGAAUCGUUCACGUCGCGGCUCCUGUCAGAUUCUGGUGAAUCUGCGAAUUCUGCUGU [G17U C33U] yielded a self-cleavage of 0.347.
Variant GGGGGCCACAGCAGAAUCGUUCACGUCGCGGCCGCUGUCAGAUUCUGGUGAAUCUGCGAAUUCUGCUGU [G17U C34G] has a self-cleavage of 0.177.

Source: the RNAGym collection of RNA variant scans (doi:10.7554/elife.80360)
